Source: article PMC9482650, “Quantitative fragmentomics allow affinity mapping of interactomes” (Nature Communications, 2022)

Columns and labels:
Assay in all cases: holdup assay
Set-up in all cases: key: below the threshold = too weak to quantify, mostly under pKd 3.1 to 4
[1] = biological target: MAGI2_6, Q86UL8
[2] = biological target: T1, LNX2_2, Q8N448
T1 sequence (Q8N448 334-432, limits assumed, looked up): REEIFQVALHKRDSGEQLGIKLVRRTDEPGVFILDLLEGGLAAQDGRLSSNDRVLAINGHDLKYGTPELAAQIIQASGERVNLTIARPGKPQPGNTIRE

[3] = biological target: T2, LIN7C, Q9NUP9
T2 sequence (Q9NUP9 88-185, limits assumed, looked up): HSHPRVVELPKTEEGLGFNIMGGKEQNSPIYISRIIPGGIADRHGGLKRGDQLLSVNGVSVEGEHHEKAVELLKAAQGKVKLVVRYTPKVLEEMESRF

[4] = biological target: T3, MPP2, Q14168
T3 sequence (Q14168 180-250, limits assumed, looked up): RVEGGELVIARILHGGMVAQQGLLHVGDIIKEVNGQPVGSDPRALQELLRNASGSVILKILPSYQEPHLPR

[5] = biological target: MAGI2_2, Q86UL8
MAGI2_2, Q86UL8, sequence (Q86UL8 410-522): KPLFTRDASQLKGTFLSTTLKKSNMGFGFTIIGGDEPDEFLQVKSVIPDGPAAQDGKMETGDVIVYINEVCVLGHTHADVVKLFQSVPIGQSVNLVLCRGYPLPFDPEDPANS

[6] = biological target: T4, DFNB31_3, Q9P202
T4 sequence (Q9P202 811-907, limits assumed, looked up): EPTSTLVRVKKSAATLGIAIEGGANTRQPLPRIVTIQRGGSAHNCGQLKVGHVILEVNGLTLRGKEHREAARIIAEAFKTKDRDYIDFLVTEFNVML

[7] = biological target: GOPC, Q9HD26
[8] = biological target: T5, MPP6, Q9NZW5
T5 sequence (Q9NZW5 125-219, limits assumed, looked up): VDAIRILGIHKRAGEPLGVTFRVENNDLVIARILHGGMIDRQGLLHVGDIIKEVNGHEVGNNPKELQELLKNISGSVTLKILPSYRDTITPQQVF

[9] = biological target: MAGI1_2, Q96QZ7
MAGI1_2, Q96QZ7, sequence (Q96QZ7 456-580): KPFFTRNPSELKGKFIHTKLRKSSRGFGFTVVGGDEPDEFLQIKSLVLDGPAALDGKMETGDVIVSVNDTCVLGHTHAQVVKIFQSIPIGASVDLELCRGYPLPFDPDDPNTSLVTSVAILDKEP

[10] = biological target: TJP1_3, Q07157
TJP1_3, Q07157, sequence (Q07157 416-512): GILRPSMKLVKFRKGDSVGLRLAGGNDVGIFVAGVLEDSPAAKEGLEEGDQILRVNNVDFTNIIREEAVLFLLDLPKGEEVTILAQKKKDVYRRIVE

[11] = biological target: GORASP1, Q9BQQ3
GORASP1, Q9BQQ3, sequence (Q9BQQ3 1-208): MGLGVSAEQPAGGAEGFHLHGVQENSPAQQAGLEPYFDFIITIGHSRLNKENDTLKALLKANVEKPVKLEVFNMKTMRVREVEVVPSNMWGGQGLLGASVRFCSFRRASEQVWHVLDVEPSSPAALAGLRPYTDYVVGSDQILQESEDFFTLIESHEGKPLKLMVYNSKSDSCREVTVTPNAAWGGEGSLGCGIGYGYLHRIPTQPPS

[12] = biological target: DLG1_1, Q12959
[13] = biological target: HTRA2, O43464
HTRA2, O43464, sequence (O43464 355-458): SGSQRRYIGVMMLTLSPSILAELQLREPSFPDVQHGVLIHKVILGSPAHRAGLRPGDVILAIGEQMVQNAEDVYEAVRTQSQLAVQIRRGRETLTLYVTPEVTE

[14] = biological target: NOS1, P29475
NOS1, P29475, sequence (P29475 9-101): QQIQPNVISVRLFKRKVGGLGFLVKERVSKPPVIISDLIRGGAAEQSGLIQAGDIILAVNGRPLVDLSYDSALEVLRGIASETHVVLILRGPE

[15] = biological target: PICK1, Q9NRD5
PICK1, Q9NRD5, sequence (Q9NRD5 17-115): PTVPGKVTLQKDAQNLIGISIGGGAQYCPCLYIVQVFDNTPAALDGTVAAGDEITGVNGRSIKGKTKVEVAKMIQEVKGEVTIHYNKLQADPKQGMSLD

[16] = biological target: CASK, O14936
CASK, O14936, sequence (O14936 487-570): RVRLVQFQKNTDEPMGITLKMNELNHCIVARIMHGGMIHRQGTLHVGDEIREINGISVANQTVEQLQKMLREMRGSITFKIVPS

[17] = biological target: T6, DFNB31_1, Q9P202
T6 sequence (Q9P202 135-233, limits assumed, looked up): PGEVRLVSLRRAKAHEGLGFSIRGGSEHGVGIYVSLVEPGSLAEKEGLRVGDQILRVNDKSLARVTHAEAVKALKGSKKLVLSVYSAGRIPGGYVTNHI

[18] = biological target: T7, APBA2_1, Q99767
T7 sequence (Q99767 563-664, limits assumed, looked up): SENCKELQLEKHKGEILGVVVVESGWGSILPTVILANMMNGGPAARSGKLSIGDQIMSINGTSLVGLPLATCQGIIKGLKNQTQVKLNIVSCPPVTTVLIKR

[19] = biological target: Inadl_9, Q8NI35
Inadl_9, Q8NI35, sequence (Q8NI35 1530-1615): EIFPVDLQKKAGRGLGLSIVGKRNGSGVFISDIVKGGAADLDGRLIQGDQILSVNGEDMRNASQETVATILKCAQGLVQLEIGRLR

[20] = biological target: T8, SNTA1, Q13424
T8 sequence (Q13424 82-180, limits assumed, looked up): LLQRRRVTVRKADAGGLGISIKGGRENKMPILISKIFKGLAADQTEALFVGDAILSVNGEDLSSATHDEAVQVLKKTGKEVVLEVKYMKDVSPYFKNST

[21] = biological target: T9, DLG3_1, Q92796
T9 sequence (Q92796 125-227, limits assumed, looked up): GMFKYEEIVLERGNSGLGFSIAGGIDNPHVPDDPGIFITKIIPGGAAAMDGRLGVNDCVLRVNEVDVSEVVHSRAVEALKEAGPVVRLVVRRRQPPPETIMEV

[22] = biological target: PTPN3, P26045
PTPN3, P26045, sequence (P26045 505-587): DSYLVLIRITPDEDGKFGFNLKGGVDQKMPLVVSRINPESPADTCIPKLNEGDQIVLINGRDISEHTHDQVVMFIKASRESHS

[23] = biological target: T10, PTPN13_1, Q12923
T10 sequence (Q12923 1088-1188, limits assumed, looked up): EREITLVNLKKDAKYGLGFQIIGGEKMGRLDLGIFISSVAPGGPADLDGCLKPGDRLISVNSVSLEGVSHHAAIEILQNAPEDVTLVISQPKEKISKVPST

[24] = biological target: DLG2_2, Q15700
DLG2_2, Q15700, sequence (Q15700 189-283): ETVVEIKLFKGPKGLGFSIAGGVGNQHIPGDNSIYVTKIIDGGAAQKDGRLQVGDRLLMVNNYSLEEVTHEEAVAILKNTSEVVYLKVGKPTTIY

[25] = biological target: Inadl_5, Q8NI35
Inadl_5, Q8NI35, sequence (Q8NI35 673-780): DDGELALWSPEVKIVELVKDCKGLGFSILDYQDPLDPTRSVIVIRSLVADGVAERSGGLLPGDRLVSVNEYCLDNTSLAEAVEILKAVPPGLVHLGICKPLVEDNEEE

[26] = biological target: MAST1, Q9Y2H9
MAST1, Q9Y2H9, sequence (Q9Y2H9 962-1065): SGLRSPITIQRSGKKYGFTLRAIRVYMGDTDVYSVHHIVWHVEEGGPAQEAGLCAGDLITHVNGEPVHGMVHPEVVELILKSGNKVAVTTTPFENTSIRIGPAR

[27] = biological target: FRMPD2_3, Q68DX3
FRMPD2_3, Q68DX3, sequence (Q68DX3 1073-1166): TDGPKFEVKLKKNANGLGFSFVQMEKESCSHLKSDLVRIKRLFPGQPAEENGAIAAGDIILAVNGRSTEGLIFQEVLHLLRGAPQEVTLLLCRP

[28] = biological target: LDB3, O75112
LDB3, O75112, sequence (O75112 1-94): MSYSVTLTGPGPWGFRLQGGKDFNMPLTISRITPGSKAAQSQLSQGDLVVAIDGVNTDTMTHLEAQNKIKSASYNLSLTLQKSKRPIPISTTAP

[29] = biological target: Inadl_8, Q8NI35
Inadl_8, Q8NI35, sequence (Q8NI35 1425-1530): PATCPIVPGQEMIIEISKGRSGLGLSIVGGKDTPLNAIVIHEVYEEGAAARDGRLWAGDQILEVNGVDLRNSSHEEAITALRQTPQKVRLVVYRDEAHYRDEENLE

[30] = plain residues with an end cap or a label only (N-terminal biotin on a linker: ttds)
[31] = plain residues with an end cap or a label only (N-terminal biotin on a linker: ahx)

MAGI2_6, Q86UL8, sequence (Q86UL8 1141-1229): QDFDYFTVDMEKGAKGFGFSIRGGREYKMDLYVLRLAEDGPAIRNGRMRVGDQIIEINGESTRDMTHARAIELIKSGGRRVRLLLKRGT

## SRSRRRETAL [HPV33-E6, P06427]
[1]; [30]
  pKd: below the threshold
[2]; [30]
  pKd: below the threshold
[3]; [30]
  pKd: 4.14
[4]; [30]
  pKd: below the threshold
[5]; [30]
  pKd: 5.31
[6]; [30]
  pKd: below the threshold
[7]; [30]
  pKd: 3.97
[8]; [30]
  pKd: below the threshold
[9]; [30]
  pKd: 5.67
[10]; [30]
  pKd: below the threshold
[11]; [30]
  pKd: below the threshold
[12]; [30]
  pKd: 4.5
[13]; [30]
  pKd: 3.46
[14]; [30]
  pKd: 4.03
[15]; [30]
  pKd: below the threshold
[16]; [30]
  pKd: below the threshold
[17]; [30]
  pKd: 3.77
[18]; [30]
  pKd: below the threshold
[19]; [30]
  pKd: below the threshold
[20]; [30]
  pKd: 4.66
[21]; [30]
  pKd: 3.79
[22]; [30]
  pKd: 5.01
[23]; [30]
  pKd: below the threshold
[24]; [30]
  pKd: 4.57
[25]; [30]
  pKd: below the threshold
[26]; [30]
  pKd: 4.78
[27]; [30]
  pKd: below the threshold
[28]; [30]
  pKd: below the threshold
[29]; [30]
  pKd: below the threshold

## SGGKRKETLV [NET1, Q7Z628]
[1]; [30]
  pKd: 3.54
[2]; [30]
  pKd: 4.66
[3]; [30]
  pKd: 4.4
[4]; [30]
  pKd: below the threshold
[5]; [30]
  pKd: 5.87
[6]; [30]
  pKd: below the threshold
[7]; [30]
  pKd: 3.82
[8]; [30]
  pKd: below the threshold
[9]; [30]
  pKd: 5.72
[10]; [30]
  pKd: below the threshold
[11]; [30]
  pKd: below the threshold
[12]; [30]
  pKd: 5.09
[13]; [30]
  pKd: below the threshold
[14]; [30]
  pKd: 4.09
[15]; [30]
  pKd: below the threshold
[16]; [30]
  pKd: below the threshold
[17]; [30]
  pKd: below the threshold
[18]; [30]
  pKd: below the threshold
[19]; [30]
  pKd: 3.66
[20]; [30]
  pKd: 4.25
[21]; [30]
  pKd: 4.61
[22]; [30]
  pKd: 4.66
[23]; [30]
  pKd: below the threshold
[24]; [30]
  pKd: 5.26
[25]; [30]
  pKd: 3.78
[26]; [30]
  pKd: 4.33
[27]; [30]
  pKd: below the threshold
[28]; [30]
  pKd: below the threshold
[29]; [30]
  pKd: 3.63

## ADENEQVSAV [RAPGEF6, Q8TEU7]
[1]; [31]
  pKd: 4.19
[2]; [31]
  pKd: below the threshold
[3]; [31]
  pKd: below the threshold
[4]; [31]
  pKd: below the threshold
[5]; [31]
  pKd: below the threshold
[6]; [31]
  pKd: below the threshold
[7]; [31]
  pKd: below the threshold
[8]; [31]
  pKd: below the threshold
[9]; [31]
  pKd: 3.83
[10]; [31]
  pKd: below the threshold
[11]; [31]
  pKd: below the threshold
[12]; [31]
  pKd: below the threshold
[13]; [31]
  pKd: below the threshold
[14]; [31]
  pKd: 3.61
[15]; [31]
  pKd: below the threshold
[16]; [31]
  pKd: below the threshold
[17]; [31]
  pKd: below the threshold
[18]; [31]
  pKd: below the threshold
[19]; [31]
  pKd: below the threshold
[20]; [31]
  pKd: 3.64
[21]; [31]
  pKd: below the threshold
[22]; [31]
  pKd: 4.3
[23]; [31]
  pKd: below the threshold
[24]; [31]
  pKd: 3.57
[25]; [31]
  pKd: below the threshold
[26]; [31]
  pKd: 4.05
[27]; [31]
  pKd: below the threshold
[28]; [31]
  pKd: below the threshold
[29]; [31]
  pKd: 3.86

## FVETQHQTQV [FAT3, Q8TDW7]
[1]; [30]
  pKd: 3.77
[2]; [30]
  pKd: 3.75
[3]; [30]
  pKd: below the threshold
[4]; [30]
  pKd: below the threshold
[5]; [30]
  pKd: 4.02
[6]; [30]
  pKd: below the threshold
[7]; [30]
  pKd: 3.76
[8]; [30]
  pKd: below the threshold
[9]; [30]
  pKd: 3.93
[10]; [30]
  pKd: below the threshold
[11]; [30]
  pKd: below the threshold
[12]; [30]
  pKd: 4.32
[13]; [30]
  pKd: below the threshold
[14]; [30]
  pKd: 3.95
[15]; [30]
  pKd: below the threshold
[16]; [30]
  pKd: below the threshold
[17]; [30]
  pKd: 3.48
[18]; [30]
  pKd: below the threshold
[19]; [30]
  pKd: 3.61
[20]; [30]
  pKd: 4.09
[21]; [30]
  pKd: 3.85
[22]; [30]
  pKd: 4.12
[23]; [30]
  pKd: below the threshold
[24]; [30]
  pKd: 4.5
[25]; [30]
  pKd: below the threshold
[26]; [30]
  pKd: 4.8
[27]; [30]
  pKd: below the threshold
[28]; [30]
  pKd: below the threshold
[29]; [30]
  pKd: below the threshold

## SAPATLSSRA [PDLIM2, Q96JY6]
[1]; [31]
  pKd: below the threshold
[2]; [31]
  pKd: below the threshold
[3]; [31]
  pKd: below the threshold
[4]; [31]
  pKd: below the threshold
[5]; [31]
  pKd: below the threshold
[6]; [31]
  pKd: below the threshold
[7]; [31]
  pKd: below the threshold
[8]; [31]
  pKd: below the threshold
[9]; [31]
  pKd: below the threshold
[10]; [31]
  pKd: below the threshold
[11]; [31]
  pKd: below the threshold
[12]; [31]
  pKd: below the threshold
[13]; [31]
  pKd: below the threshold
[14]; [31]
  pKd: below the threshold
[15]; [31]
  pKd: below the threshold
[16]; [31]
  pKd: below the threshold
[17]; [31]
  pKd: below the threshold
[18]; [31]
  pKd: below the threshold
[19]; [31]
  pKd: below the threshold
[20]; [31]
  pKd: below the threshold
[21]; [31]
  pKd: below the threshold
[22]; [31]
  pKd: below the threshold
[23]; [31]
  pKd: below the threshold
[24]; [31]
  pKd: below the threshold
[25]; [31]
  pKd: below the threshold
[26]; [31]
  pKd: below the threshold
[27]; [31]
  pKd: below the threshold
[28]; [31]
  pKd: below the threshold
[29]; [31]
  pKd: below the threshold
